From paper PMC10796322, “Molecular switching in transcription through splicing and proline-isomerization regulates stress responses in plants” (Nature Communications, 2024)
Changes are numbered by the printed parent chain. No end group written: not given here.

T1: DREB2A_(151-335) (Arabidopsis thaliana, UniProt O82132 151-335)
T1 construct: also called C-terminal intrinsically disordered region (IDR) of DREB2A; source: E. coli BL21 DE3, purified (glutathione Sepharose, TEV cleavage, SEC); not shown: GST, N-terminal, cleaved
T1 sequence (looked up): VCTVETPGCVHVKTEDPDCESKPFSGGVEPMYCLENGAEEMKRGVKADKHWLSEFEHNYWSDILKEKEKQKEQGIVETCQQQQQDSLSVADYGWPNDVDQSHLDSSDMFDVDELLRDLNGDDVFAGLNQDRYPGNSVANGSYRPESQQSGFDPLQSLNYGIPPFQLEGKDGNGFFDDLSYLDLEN

T2: Med25-ACID R568A (Arabidopsis thaliana, UniProt Q7XYY2 532-680, R568A)
T2 construct: Mediator complex subunit 25 (Med25), Arabidopsis thaliana, AT1G25540, ACID domain construct with Arg568 in loop L1 replaced by alanine; the only Med25-ACID construct described is 532-680; source: E. coli BL21 DE3, purified (glutathione Sepharose, TEV cleavage, cation exchange, SEC); not shown: GST, N-terminal, cleaved
T2 sequence (looked up): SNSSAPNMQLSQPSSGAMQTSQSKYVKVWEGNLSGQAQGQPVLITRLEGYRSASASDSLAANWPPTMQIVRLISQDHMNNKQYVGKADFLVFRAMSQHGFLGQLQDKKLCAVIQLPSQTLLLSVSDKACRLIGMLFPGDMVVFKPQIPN

T3: Med25-ACID_(532-680), activator interaction domain (ACID) of mediator complex subunit 25 (Arabidopsis thaliana, UniProt Q7XYY2 532-680)
T3 chain: T2 sequence (looked up) with A37R

B1: Med25-ACID_(532-680), activator interaction domain (ACID) of mediator complex subunit 25 (domain or fragment, Arabidopsis thaliana, UniProt Q7XYY2 532-680, looked up)
chain: T2 sequence (looked up) with A37R
notes: 15N- or 13C,15N-labelled in the NMR titrations; unlabelled in ITC, CEST and stopped-flow; also called AtMed25-ACID; ACID domain; source: E. coli BL21 DE3, purified (glutathione Sepharose, TEV cleavage, cation exchange, SEC); not shown: GST, N-terminal, cleaved
B2: DREB2A_(234-276) (ABS-RIM) (domain or fragment, Arabidopsis thaliana, UniProt O82132 234-276, looked up)
chain: QDSLSVADYGWPNDVDQSHLDSSDMFDVDELLRDLNGDDVFAG
notes: 13C,15N-labelled in the CEST experiments; Populates cis (30 ± 1%) and trans Trp244-Pro245 isomers in the free state; also called bivalent ABS-RIM fragment; source: E. coli BL21 DE3, purified (glutathione Sepharose, TEV cleavage, SEC); not shown: GST, N-terminal, cleaved
B3: FITC-DREB2A_(234-256) synthetic peptide (peptide, UniProt O82132 234-256, looked up)
peptide: QDSLSVADYGWPNDVDQSHLDSS
modifications: also: FITC label, position not given here
notes: DREB2A, Arabidopsis thaliana, AT5G05410, residues 234-256; also called FITC-labeled ABS; source: synthetic peptide, bought: TAG Copenhagen A/S

Legend:
RCD1-RST = target: T4, RCD1-RST (Arabidopsis thaliana, UniProt Q8RY59); conditions: cited from earlier work
T4 construct: RCD1-RST
T4 sequence (Q8RY59 499-572): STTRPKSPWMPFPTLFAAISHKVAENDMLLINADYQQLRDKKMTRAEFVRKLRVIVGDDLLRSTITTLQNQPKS
Source text: However, alternative splicing of DREB2A will shortcut such regulatory fine-tuning of competition by removing the RIM, thereby eliminating RCD1 as a repressor while leaving AD2 available (Fig. 7B). This provides an obvious mechanism for functional switching in a transcriptional pathway.

Med25-ACID R568A [1] = target: T5, Med25-ACID R568A (Arabidopsis thaliana, UniProt Q7XYY2, R568A); conditions: SD, n = 2
T5 construct: Med25-ACID532-680 R568A, N-terminal GST tag removed by TEV protease
Method: To validate the proposed binding groove, we introduced an alanine in L1, replacing Arg568, which experienced a large CSP upon DREB2A binding, and determined the binding affinity using ITC with the high-affinity ABS-RIM fragment (DREB2A234-276, Fig. 1A). […] Thus, both NMR and thermodynamics supported the importance of the groove for the interaction with DREB2A.
ITC was performed on either a MicroCal ITC200 or a Malvern Pananalytical PEAQ-ITC. All ITC experiments were performed using a 50 mM HEPES pH 7.4, 100 mM NaCl and 0.5 mM tris(2-carboxyethyl)phosphine (TCEP) buffer. All experiments were performed using a ~ 1:10 cell to syringe protein concentration ratio. For high-affinity DREB2A fragments, the cell concentration was around 15 µM, while lower-affinity interaction experiments used higher concentrations. Samples were degassed by centrifuging at 20,000 x g for 20 minutes at experimental temperature. For three DREB2A fragments, experiments were performed over a range of temperatures to determine the ΔCp. Reported thermodynamic parameters are given at 25 °C. Data were analyzed using Origin and inhouse scripts using the one-set-of-sites model as documented by MicroCal and Origin. Dilution heats were fitted using an offset parameter. Most experiments were performed using a 0.5 µl initial injection, which was discarded in the analysis, followed by 18 injections of 2.0 µl. […]

Med25-ACID = target: T6, Med25-ACID (Arabidopsis thaliana, UniProt Q7XYY2); conditions: SD
T6 construct: Med25-ACID532-680 (AT1G25540), expressed in E. coli with N-terminal GST tag removed by TEV protease
T6 sequence (Q7XYY2 532-680): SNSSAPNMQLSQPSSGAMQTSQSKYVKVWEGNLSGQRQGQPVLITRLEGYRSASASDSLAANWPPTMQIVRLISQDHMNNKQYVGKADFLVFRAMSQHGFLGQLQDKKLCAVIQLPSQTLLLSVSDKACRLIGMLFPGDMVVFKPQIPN
Method: All protein fragments were produced with an N-terminal Glutathione-S-transferase (GST) tag which was removed using Tobacco Etch Virus (TEV) protease and expressed from E.coli BL21 DE3 cells. DREB2A (AT5G05410) variants were expressed at 37 °C for three hours. The DREB2A splice variant (AT5G05410.2) was based on GenBank ID CD530293[21]. Due to stability and aggregation considerations, Med25-ACID (AT1G25540) was expressed with additional N-terminal residues. Expression of Med25-ACID532-680 was induced at high OD (0.8-1.0) and cultured overnight at 18 °C. Cells were resuspended in 20 mM Tris-HCl pH 8.0, 100 mM NaCl lysis buffer and sonicated. The lysate was incubated with glutathione Sepharose for one hour and washed using the lysis buffer. Aliquots of 5 mL resin were resuspended in 20 mL of lysis buffer with 5 mM dithiothreitol (DTT) and 1 mM EDTA and the protein was cleaved overnight at 4 °C using TEV protease. For DREB2A, cleaved protein was freeze-dried and buffer-changed to experimental buffer using size exclusion chromatography. Med25-ACID was further purified using cation exchange (Source 15 S) at pH 8.5 and the buffer was changed using size exclusion chromatography (Superdex S75 10/300 GL). Isotope-labeled proteins were produced by growing the initial culture in lysogenic broth and transferring to half volume M9 minimal media 30 min before induction.
ITC was performed on either a MicroCal ITC200 or a Malvern Pananalytical PEAQ-ITC. All ITC experiments were performed using a 50 mM HEPES pH 7.4, 100 mM NaCl and 0.5 mM tris(2-carboxyethyl)phosphine (TCEP) buffer. All experiments were performed using a ~ 1:10 cell to syringe protein concentration ratio. For high-affinity DREB2A fragments, the cell concentration was around 15 µM, while lower-affinity interaction experiments used higher concentrations. Samples were degassed by centrifuging at 20,000 x g for 20 minutes at experimental temperature. For three DREB2A fragments, experiments were performed over a range of temperatures to determine the ΔCp. Reported thermodynamic parameters are given at 25 °C. Data were analyzed using Origin and inhouse scripts using the one-set-of-sites model as documented by MicroCal and Origin. Dilution heats were fitted using an offset parameter. Most experiments were performed using a 0.5 µl initial injection, which was discarded in the analysis, followed by 18 injections of 2.0 µl.

DREB2A_(151-335) = target: T1, DREB2A_(151-335); assay: ITC; 25 °C; 50 mM HEPES pH 7.4, 100 mM NaCl, 0.5 mM TCEP; ~1:10 cell to syringe concentration ratio, cell around 15 µM for high-affinity fragments; one-set-of-sites model; which protein was in the cell is not stated; conditions: both partners purified
[2] = target: B1; assay: as above; conditions: both partners purified
Med25-ACID R568A [3] = target: T2, Med25-ACID R568A; assay: as above; conditions: both partners purified
[4] = target: T3, Med25-ACID_(532-680), activator …; assay: NMR; cis proline isomer, 10 °C
[5] = target: T3, Med25-ACID_(532-680), activator …; assay: trans proline isomer, 10 °C
[6] = target: T3, Med25-ACID_(532-680), activator …; assay: cis proline isomer, 10 °C
[7] = target: B1; assay: ITC; 25 °C; 50 mM HEPES pH 7.4, 100 mM NaCl, 0.5 mM TCEP; ~1:10 cell to syringe concentration ratio, cell around 15 µM for high-affinity fragments; one-set-of-sites model; which protein was in the cell is not stated; conditions: both partners purified; remark: listed apart in the source
[8] = target: T3, Med25-ACID_(532-680), activator …; assay: NMR; trans proline isomer, 10 °C
[9] = target: B1; assay: CEST NMR; 15N- and 13C-CEST; 500 µM 13C,15N-labeled DREB2A(234-276) or 1 mM DREB2A(234-276,P245A) with about 5% molar ratio of unlabeled Med25-ACID(532-680); pH 6.1, 20 mM phosphate, 100 mM NaCl; 25 °C and 10 °C; isomer Kd values estimated from the bound fractions and the overall ITC affinity; conditions: both partners purified
[10] = target: T3, Med25-ACID_(532-680), activator …; assay: stopped-flow, 10 °C
[11] = target: T3, Med25-ACID_(532-680), activator …; assay: stopped-flow, 10 °C
[12] = target: B1; assay: stopped-flow fluorescence; FITC-DREB2A (50 nM 234-276 or 250 nM 234-256) mixed with increasing Med25-ACID(532-680), pseudo-first-order; dissociation by competitive displacement with unlabeled DREB2A; 50 mM HEPES pH 7.4, 100 mM NaCl, 1 mM DTT; Fig. 7 legend gives kinetic rate constants at 10 °C; conditions: both partners purified

Molecule: DREB2A (fragment borders not printed)
- Kd (RCD1-RST): 12 nM

Molecule: DREB2A195-276 [195–276]
- Kd (Med25-ACID R568A [1]): 3100 nM
- Kd (Med25-ACID): 450 ± 30 nM

Molecule: B1
- Kd (DREB2A_(151-335)): 540 nM

Molecule: B2
- Kd [2]: 510 nM
- dH [2]: -12.1 kcal/mol
- stoichiometry N [2]: 0.98
- Kd (Med25-ACID R568A [3]): 3100 ± 700 nM
- dH (Med25-ACID R568A [3]): -11 ± 0.956 kcal/mol
- stoichiometry N (Med25-ACID R568A [3]): 0.9 ± 0.01
- Kd [4]: 110 nM
- koff [5]: 24 s⁻¹
- koff [6]: 6 s⁻¹
- Kd [7]: 520 ± 20 nM
- Kd [8]: 190 nM
- KD of the cis-Pro245 isomer (estimated from CEST bound fractions and the ITC affinity) [9]: 330 ± 20 nM
- KD of the trans-Pro245 isomer (estimated from CEST bound fractions and the ITC affinity) [9]: 640 ± 30 nM

Molecule: B3
- Kd [10]: 1800 nM
- koff [11]: 54 s⁻¹
- kon [12]: 2.9e+07 ± 1e+06 M⁻¹ s⁻¹
